The term IC50 denotes the concentration at which inhibition is half-maximal. Low values mean higher potency, high ones lower potency.

The assay has as its target Lyn kinase (mouse (endogenous in mouse brain)) (UniProt P25911). Nature of the assay: pull-down.
UniProt P25911, sequence (P25911 whole entry): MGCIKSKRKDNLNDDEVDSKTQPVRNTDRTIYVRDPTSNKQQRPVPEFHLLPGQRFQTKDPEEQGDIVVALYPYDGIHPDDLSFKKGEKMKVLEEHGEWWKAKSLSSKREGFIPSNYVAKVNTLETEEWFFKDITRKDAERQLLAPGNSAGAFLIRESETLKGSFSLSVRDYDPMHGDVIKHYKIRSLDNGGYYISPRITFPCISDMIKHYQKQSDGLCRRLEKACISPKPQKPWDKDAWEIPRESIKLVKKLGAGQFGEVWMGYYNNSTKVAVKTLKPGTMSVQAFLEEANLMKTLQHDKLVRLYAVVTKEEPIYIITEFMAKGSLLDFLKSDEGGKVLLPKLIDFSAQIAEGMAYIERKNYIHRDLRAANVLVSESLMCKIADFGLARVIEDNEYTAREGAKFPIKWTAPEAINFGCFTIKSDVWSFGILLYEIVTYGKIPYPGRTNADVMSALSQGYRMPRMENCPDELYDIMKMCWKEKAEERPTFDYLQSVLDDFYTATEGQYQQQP

In turn, “TLR4-Lyn interacting modulator (TLIM) protein (domain or fragment)” yielded an IC50 of 17.9 nM.
